± gives the uncertainty stated by the source.

This series can be described thus: abundance fitness (aPCA) (normalised: wild type 0, dead -1); higher = more abundant; growth selection in yeast, the domain comes from the species named. Particulars: Homo sapiens.
“E3 ubiquitin-protein ligase NEDD4-like T209D, Q96PU5” returned an abundance fitness of -0.311 ± 0.072. “E3 ubiquitin-protein ligase NEDD4-like T209E, Q96PU5” returned an abundance fitness of -0.31 ± 0.078. The same measure for “E3 ubiquitin-protein ligase NEDD4-like T209F, Q96PU5”: -0.325 ± 0.083; for “E3 ubiquitin-protein ligase NEDD4-like T209G, Q96PU5”: -0.305 ± 0.062; for “E3 ubiquitin-protein ligase NEDD4-like T209H, Q96PU5”: -0.32 ± 0.11.

“E3 ubiquitin-protein ligase NEDD4-like T209I, Q96PU5”: the abundance fitness was -0.036 ± 0.088. Consider “E3 ubiquitin-protein ligase NEDD4-like T209L, Q96PU5”, for which the abundance fitness was -0.095 ± 0.073. For “E3 ubiquitin-protein ligase NEDD4-like T209M, Q96PU5” the value was -0.093 ± 0.1; for “E3 ubiquitin-protein ligase NEDD4-like T209N, Q96PU5”, -0.095 ± 0.092; for “E3 ubiquitin-protein ligase NEDD4-like T209P, Q96PU5”, -0.002 ± 0.059. In the case of “E3 ubiquitin-protein ligase NEDD4-like T209Q, Q96PU5”, the abundance fitness was -0.21 ± 0.095. For “E3 ubiquitin-protein ligase NEDD4-like T209R, Q96PU5” the value was -0.096 ± 0.058; for “E3 ubiquitin-protein ligase NEDD4-like T209S, Q96PU5”, 0.036 ± 0.073; for “E3 ubiquitin-protein ligase NEDD4-like T209V, Q96PU5”, -0.079 ± 0.067. On to “E3 ubiquitin-protein ligase NEDD4-like T209Y, Q96PU5”, for which the abundance fitness is -0.649 ± 0.11. For the substance “E3 ubiquitin-protein ligase NEDD4-like T218A, Q96PU5”, the abundance fitness was -0.045 ± 0.057. The substance “E3 ubiquitin-protein ligase NEDD4-like T218C, Q96PU5” came in with an abundance fitness of -0.031 ± 0.076. Regarding “E3 ubiquitin-protein ligase NEDD4-like T218D, Q96PU5”, the abundance fitness was -0.347 ± 0.096. “E3 ubiquitin-protein ligase NEDD4-like T218E, Q96PU5”: the abundance fitness was -0.122 ± 0.062. On to “E3 ubiquitin-protein ligase NEDD4-like T218F, Q96PU5”, for which the abundance fitness was -0.028 ± 0.084.

Substance “E3 ubiquitin-protein ligase NEDD4-like T218G, Q96PU5” registered an abundance fitness of -0.146 ± 0.061. The same measure for “E3 ubiquitin-protein ligase NEDD4-like T218H, Q96PU5”: -0.017 ± 0.1; for “E3 ubiquitin-protein ligase NEDD4-like T218I, Q96PU5”: -0.118 ± 0.096; for “E3 ubiquitin-protein ligase NEDD4-like T218K, Q96PU5”: -0.06 ± 0.072. “E3 ubiquitin-protein ligase NEDD4-like T218M, Q96PU5” showed an abundance fitness of -0.128 ± 0.089. On to “E3 ubiquitin-protein ligase NEDD4-like T218N, Q96PU5”, for which the abundance fitness was -0.244 ± 0.11. Take “E3 ubiquitin-protein ligase NEDD4-like T218Q, Q96PU5”: the abundance fitness was -0.218 ± 0.095.

“E3 ubiquitin-protein ligase NEDD4-like T218R, Q96PU5” returned an abundance fitness of -0.184 ± 0.058. With “E3 ubiquitin-protein ligase NEDD4-like T218S, Q96PU5”, the abundance fitness is -0.236 ± 0.07. The same measure for “E3 ubiquitin-protein ligase NEDD4-like T218V, Q96PU5”: 0.092 ± 0.056. The substance “E3 ubiquitin-protein ligase NEDD4-like T218W, Q96PU5” showed an abundance fitness of -0.084 ± 0.075. Turning to “E3 ubiquitin-protein ligase NEDD4-like T218Y, Q96PU5”, the abundance fitness worked out at 0.211 ± 0.1.

Regarding “E3 ubiquitin-protein ligase NEDD4-like T219A, Q96PU5”, the abundance fitness was -0.28 ± 0.057. Take “E3 ubiquitin-protein ligase NEDD4-like T219C, Q96PU5”: the abundance fitness was -0.137 ± 0.09.

(Values after the Human Domainome abundance scans (Beltran et al. 2025).)
